In the DeepSol protein solubility set:

Test: soluble on expression in E. coli; label from the status in PepcDB or PDB records

| Sequence | soluble on expression in E. coli |
| --- | --- |
| MKKTQRKEIENVTNITGVRQIELWRRDDLQHPRLDEVAEEVPVALVYNGISHVVMMASPKDLEYFALGFSLSEGIIESPRDIFGMDVVPSCNGLEVQIELSSRRFMGLKERRRALAGRTGCGVCGVEQLNDIGKPVQPLPFTQTFDLNKLDDALRHLNDFQPVGRLTGCTHAAAWMLPSGELVGGHEDVGRHVALDKLLGRRSQEGESWQQGAVLVSSRASYEMVQKSAMCGVEILFAVSAATTLAVEVAERCNLTLVGFCKPGRATVYTHPQRLSN | not soluble |
| MKKVILFMAGILASMMLNAQSRWSVTPEAGLVVNKENEGTSVTLGFKAGAGVLYQLKEGVGKKPSFGLKSGVYILMQKGGYHPMSWGNISTGGGFSMDYEKTNVESTRYYLQLPVMAHWGFKLCDDVRLKLAVGPYVAVGIGGRTNAYVSSSKYNIDEETGVGQYEYRNDYYRFGTFKGKTVNEEFGFEASPRLDWGGTASVGIAVKRISFTVGYDLAWGKYNKEQNDLRIRNHMVSFTSGYSF | not soluble |
| MKKWMAGLFLAAAVLLCLMVPQQIQGASSYDKVLYFPLSRYPETGSHIRDAIAEGHPDICTIDRDGADKRREESLKGIPTKPGYDRDEWPMAVCEEGGAGADVRYVTPSDNRGAGSWVGNQMSSYPDGTRVLFIVQLEHHHHHH | soluble |
| MKKYTLIATAPMGIEAVVAKEVRDLGYECKVDNGKVIFEGDALAICRANLWLRTADRIKVQVASFKAKTFDELFEKTKAINWRSFIPENGKFPVIGKSVKSTLASVPDCQRIVKKAIVEKLKLQSGKANDWIEETGAEYKVEISLLKDQALITLDSSGTGLHKRGYRVDQGGAPIKETLAAALVQLTNWTPDRPFVDPFCGSGTIAIEAALIGQNIAPGFNRDFVSEDWEWIGKDLWNKARLEVEEKANYDQPLTIFASDIDHRMVQIAKENAEEAGLGDLIQFKQMQVKDFTTNLEFGVIVGNPPYGERLGEKKAVEQMYKEMGQAFEPLDTWSVYMLTSNENFEEAYGRKATKKRKLFNGFIKTDYYQYWSKVRPQRKKTENA | not soluble |
| MKLCFNEATTLENSNLKLDLELCEKHGYDYIEIRTMDKLPEYLKDHSLDDLAEYFQTHHIKPLALNALVFFNNRDEKGHNEIITEFKGMMETCKTLGVKYVVAVPLVTEQKIVKEEIKKSSVDVLTELSDIAEPYGVKIALEFVGHPQCTVNTFEQAYEIVNTVNRDNVGLVLDSFHFHAMGSNIESLKQADGKKIFIYHIDDTEDFPIGFLTDEDRVWPGQGAIDLDAHLSALKEIGFSDVVSVELFRPEYYKLTAEEAIQTAKKTTVDVVSKYFSMLEHHHHHH | soluble |
| MKLIKNAEFGGERPLFESHDLRLENVIIRTGESAIKECSNIETVDCRFEGNYPFWHVHGFKIDRCYFDVGGRSALWYSDHLKMTDTIIDAPKMFREMDEIDIENVTMNDADEVFWRCNGIRIKNLKLHGGTYPFMFSNNIYVDGLESNSKYVFQYVKNVEIHHAKITTKDAFWEVENVTIYDSELNGEYLGWHSKNLRLVNCHITGEQPLCYAHDLILENCTFGPDCDRTFEYSTLQADIHGAITNIKNPMSGCIVADEFGSITIDENIKAPADCEIRLRDERTCFTD | soluble |
| MKLIKNGKVLQNGELQQADILIDGKVIKQIAPAIEPSNGVDIIDAKGHFVSPGFVDVHVHLREPGGEYKETIETGTKAAARGGFTTVCPMPNTRPVPDSVEHFEALQKLIDDNAQVRVLPYASITTRQLGKELVDFPALVKEGAFAFTDDGVGVQTASMMYEGMIEAAKVNKAIVAHCEDNSLIYGGAMHEGKRSKELGIPGIPNICESVQIARDVLLAEAAGCHYHVCHVSTKESVRVIRDAKRAGIHVTAEVTPHHLLLTEDDIPGNNAIYKMNPPLRSTEDREALLEGLLDGTIDCIATDHAPHARDEKAQPMEKAPFGIVGSETAFPLLYTHFVKNGDWTLQQLVDYLTIKPCETFNLEYGTLKENGYADLTIIDLDSEQEIKGEDFLSKADNTPFIGYKVYGNPILTMVEGEVKFEGDK | not soluble |
| MKLIRKYHMIPYENGSEYESAKRFLENILSASDVDPTTKCRFYQDVLYRIRNHPELPIVTEELFDVIQENLQQQNDNQKRNVKLERRNLKYEVIPEKRESYQEKYYESPPVYKAENEQLFDDVTYHNDGINHLKPRKNVYIKEEPEDEDYHMEYEKIPEINMEQNVNELFMEPQKHAPGKIKKSKKQKKDGTLSRPLGKKEKKSVQYATSNKRQKFDLKRGKSMNNVKPRKLYKLQLDEEDEDEEPMVDETPQNTEISIKKRPFQQDSTKNLNKRQKFDLKRRKNMSRVRPNKIYKMQNLKRNISSTIPDNGTNIPAAKRRVLHGSGSAPPPGSRVYCRLWKF | not soluble |
| MKLMDVHVLFSGGKDSSLSAVILKKLGYNPHLITINFGVIPSYKLAEETAKILGFKHKVITLDRKIVEKAADMIIEHKYPGPAIQYVHKTVLEILADEYSILADGTRRDDRVPKLSYSEIQSLEMRKNIQYITPLMGFGYKTLRHLASEFFILEEIKSGT | not soluble |
| MKLNLEREKKILLKNRNRYRYFHKPGVSIIVCTNKMKYIENIFSNYSRINYPIKEMIIILNKMNLNISKYKKVAERFSNVRIIKKPENVTLGKCLNYGVDISKYNYIFKMDDDDYYGENYICDEITSLIYTNSDIVGKASFFVYYEGYGRLEIMYPEGNEKYIPNVAGSTLLIKKSVFNKVRFRNISLAEDACFIEDCCKQGIKIYSCNRFNYVYFKHRSLNDHTWKISSEDLMKVTKKVGKYKNYLPIVTILEHHHHHH | not soluble |
| MKLNVDGLLVYFPYDYIYPEQFSYMRELKRTLDAKGHGVLEMPSGTGKTVSLLALIMAYQRAYPLEVTKLIYCSRTVPEIEKVIEELRKLLNFYEKQEGEKLPFLGLALSSRKNLCIHPEVTPLRFGKDVDGKCHSLTASYVRAQYQHDTSLPHCRFYEEFDAHGREVPLPAGIYNLDDLKALGRRQGWCPYFLARYSILHANVVVYSYHYLLDPKIADLVSKELARKAVVVFDEAHNIDNVCIDSMSVNLTRRTLDRCQGNLETLQKTVLRIKETDEQRLRDEYRRLVEGLREASAARETDAHLANPVLPDEVLQEAVPGSIRTAEHFLGFLRRLLEYVKWRLRVQHVVQESPPAFLSGLAQRVCIQRKPLRFCAERLRSLLHTLEITDLADFSPLTLLANFATLVSTYAKGFTIIIEPFDDRTPTIANPILHFSCMDASLAIKPVFERFQSVIITSGTLSPLDIYPKILDFHPVTMATFTMTLARVCLCPMIIGRGNDQVAISSKFETREDIAVIRNYGNLLLEMSAVVPDGIVAFFTSYQYMESTVASWYEQGILENIQRNKLLFIETQDGAETSVALEKYQEACENGRGAILLSVARGKVSEGIDFVHHYGRAVIMFGVPYVYTQSRILKARLEYLRDQFQIRENDFLTFDAMRHAAQCVGRAIRGKTDYGLMVFADKRFARGDKRGKLPRWIQEHLTDANLNLTVDEGVQVAKYFLRQMAQPFHREDQLGLSLLSLEQLESEETLKRIEQIAQQL | not soluble |
| MKLSQQSQAIIESAIQKAINKYTCGCEQTIVTDIHIQPNQNSGELFIYDDEDEELSSVTIDEWTAYEGDDFCEDAERIFRTVLCRMKENGSFDKLTILKPYSFVLVDEDKETISELLLVDDDTLLVNDELLKGLDKELDDFLKDLLEKLEHHHHHH | soluble |
| MKLSQVVVSAVAFTGLVSAANSSNSSSSKNAAQPIAGLNNGKVAGAAGVALAGALAFLI | soluble |
| MKLSVLDQSPIAYGSNAKEALRQTTELAKVTEALGYHRFWVSEHHDASTLAGSSPEVLIAHLAAHTKKIRLGSGGVMLPHYSAYKVAENFKLLEALHPGRIDVGLGRAPGGMPIAKMALQEGKEQNIHKYPLQVKDVIGYLQDDLPTDHRFHGLKATPLIDTVPDVWLLGSSGGSANVAAENGTGFAFAHFINGEGGVQAVESYRETFQPSALFDRPQTSVAIFVICADTDEQADQIASSLDLSLIMLENGQLSKGTPSIESALSYPYSPFERARIRENRKRMIVGSPKAVRQQLVELARAYETEEVIVVTITHRFEDRIRSYELLGEEWNVN | not soluble |
| MKLTIIRLQHFSDQDRIDLGKIWPSQDLSTLTLDENHRLYAAHFNERLLGAVRVTLRGVEGELSDLCVREVTRRRGVGQYLVEETLRDNPAINSWRVADHGVEDRGVMAAFMQALGFSAQQ | not soluble |
| MKLTWIKCMSKTERISDIDEPRLFEENGVEAHIAAFVMPLLKPLGFRLVRVKLLGLNGLTLQIMVERPDGSMTVEDCETVSRTVSPLLDVQNVIERKYHLEISSPGIDRPLVRKSDFFHWQGHIAKIETKIILEGRRKFRGTLTNITQDGFTLNTDKAAYGESMYISIPFDDIIDAHLVLTDELIRDALKKNKDLSQQFISEDNQKLSKQERNYKN | not soluble |
| MKLYYTPGSCSLSPHIVLRETGLDFSIERIDLRTKKTESGKDFLAINPKGQVPVLQLDNGDILTEGVAIVQYLADLKPDRNLIAPPKALERYHQIEWLNFLASEVHKGYSPLFSSDTPESYLPVVKNKLKSKFVYINDVLSKQKCVCGDHFTVADAYLFTLSQWAPHVALDLTDLSHLQDYLARIAQRPNVHSALVTEGLIKE | soluble |
| MKMDRQAQFRAREALIFEVAEQLLLENGEAGMTLDALAAELDLAKGTLYKHFQSKDELYMLLIVRNERMLLEMIQDKQKSFPEHLAFFMLHHLHHPERTVMFHQIEERLSTTGQGIYDLFQELYQVRKQRLRIIINMTEIYLQEIQSTMTVRDYLAAIWSLTHGAAAILNSSFYQRYLGSRDTLRIAYIDQALAIPKHMHEQYV | not soluble |
| MKNDTAALAADIVDFWKKAGPDKWFDKDAAFDNHFHDRFRDAHFAAARRELDGWLEGAESSLALMLLLDQFPRNCFRGTAHMYATDPLARFFADEAIRRGHDQAVSEDLRVFFYLPFSHAEDIAAQQRACDLNQPLGGLYLHHAEEHRDIVERFGRFPHRNGILLRETTPEERQYLEEGGFSG | soluble |
| MKNETLHTQEDIIKMLDSLLRPAEPFWNEFYANREKDVPFFENVPDENLVSYIQKKRVSKGKVLELGCGPGRNAIYLANEGFDVTAVDVSIEGINWAKERALAKGVEIEFICDSIFNLEVQNEFDFVYDSGCLHHIPPHRRVNYVDLIKNALKSGGYFGLTCFAAGDLDERNGSEITDWDVYRGWSLQGGLAYSEEKLREIFKGFEVIEIRKMEQIEQPNTMFGESFLWTALFKKNLEHHHHHH | soluble |
| MKPAKVSLLRRLLHSLKHVDCNIAKRFPSTIKIVKLLMIFMVFTPISSIYAEDVYQNFEELKNNEDPSDYGVVTKETGSPVLVLAIHGGGIEGGTSEVARELSKEYSMYLFEGLKSAGNSVLHITSTHFDEPRALKMTGNHEYVISLHGYAEEDQQIEVGGTDRVRAADLVEKLQHAGFPAVLLNMDHPHAGVSPNNIANKSKTGLSIQIEMSTGFRKSLFGIFSLKSRAVTQNERFYEFTEVMFRFLKNSYLEHHHHHH | not soluble |
